Target: the molecule itself
Test: native MS; native ESI-MS (time-of-flight), 200 mM ammonium acetate pH 7.5, sample at 8 uM; without and with ADPNP, without and with the 155 bp DNA

B1: Thermus thermophilus GyrB-GyrA fusion protein (GyrBA-fus) (enzyme)
chain: MSYDASAIRVLKGLEGVRHRPAMYIGGTGVEGYHHLFKEILDNAVDEALAGYATEILVRLNEDGSLTVEDNGRGIPVDLMPEEGKPAVEVIYTTLHSGGKFEQGAYKVSGGLHGVGASVVNALSEWTVVEVFREGKHHRIAFSRGEVTEPLRVVGEAPRGKTGTRVTFKPDPEIFGNLRFDPSKIRARLREVAYLVAGLKLVFQDRQHGKEEVFLDKGGVASFAKALAEGEDLLYEKPFLIRGTHGEVEVEVGFLHTQGYNAEILTYANMIPTRDGGTHLTAFKSAYSRALNQYAKKAGLNKEKGPQPTGDDLLEGLYAVVSVKLPNPQFEGQTKGKLLNPEAGTAVGQVVYERLLEILEENPRIAKAVYEKALRAAQAREAARKARELVRRQNPLESDELPGKLADCQTENPEEAELFIVEGDSAGGSAKQGRDRRFQAILPLRGKILNVEKAGLSKALKNAEVRAMVSAIGVGIGGDGEAHFDLEGLRYHKIIIMTDADVDGSHIRTLLLTFFYRYMRPLIERGHVYIAQPPLYRLQVGKKVEYLYSDEELQARLKELEGKHYEVQRFKGLGEMNPEQLWETTMNPEKRVLKRVELQDALEASELFEKLMGQEVAPRREFIEEHARYAELDIGDLMAQVLPVEITEELKQSFINYAMSVIVDRALPDVRDGLKPVQRRILFGAYQEGVLPGRKHVKSAKIVGEVMGKYHPHGDAAIYDALVRMAQPWNLRYPLIDGQGNFGSIDGDPPAAQRYTEARLSPIGAEMLLDIDKDTVDFRPNYDGSLKEPEVLPAAIPNLLVNGASGIAVGMATSLPPHNLSEVVDALVAMIENPAITLEEVMRHLPGPDFPTGGKLSKKGIKEAYATGRGSLKVRAKVRVEEKGQRPVLVVTEIPYQVNKASLIAQIAALVKAKKIEDIVGLRDESDRQGLRIAIELKRGANPQVVLNQLYKHTALQTSFTVNLLAIVDGEPKVLSLLDLMRHYLDHRKEVVRRRSLFELRKAEERAHVLEGLLIALDHIDEVIALIRGSEDAPKARIALMERFGLSEAQAQAILDMRLQRLVALEREKLLEEYRGLMEEIARLKAILEDEARLLAEVKADLLRVKEKYGDARRTLITEFEETFNPEDLIEDEPMVITLTAQGFLKRLPLESYRAQGRGGKGLLAGRTKEEDEATHVFVADAHDDLLLFTNRGRVYRLKVYELPEMGRQARGVHVKSLLPLAEDEEVAALLSVRGLDQEGYLVFATERGLVKRTALKEYQNLGQAGLIAIRLQEGDRLVGVALSDPEDEAILATQEGQAIRFPLEEVRATGRDTQGVIGVRFKKPEDRVVSLVVVKPGEMVDLLSVSTRGYGKRTPLSEYPLQGRGGMGVITYAVSTKVGRLAALLKVRGGEDLLVLSRRGLAIRTPVAEIRQYSRATAGVRVMNLPEDDEVASAFVVEEEK
notes: DNA gyrase subunit B (GyrB), Thermus thermophilus, amplified from genomic DNA; three-amino acid G-D-L linker between the C-terminus of GyrB and the N-terminus of GyrA; DNA gyrase subunit A (GyrA), Thermus thermophilus, amplified from genomic DNA; The His10 tag stands upstream of a PreScission protease (P3C) site; Details of cloning and purification are in the Supplementary Methods; A dimer of the …
stoichiometry N: 2

Source: paper PMC3763546, “Structural insight into negative DNA supercoiling by DNA gyrase, a bacterial type 2A DNA topoisomerase” (Nucleic Acids Research, 2013)
